# T1: HA-tagged Pyk1 (HA-Pyk1) (S. cerevisiae, UniProt P00549 1-500)
# T1 construct: Pyk1 (Cdc19), pyruvate kinase of S. cerevisiae; also called pRS313-HA-PYK1; source: S. cerevisiae (pyk1∆ tsa1/2∆ or pyk1∆ cells) carrying pRS313-HA-PYK1, in lysate (whole cell extract)
# T1 sequence (looked up): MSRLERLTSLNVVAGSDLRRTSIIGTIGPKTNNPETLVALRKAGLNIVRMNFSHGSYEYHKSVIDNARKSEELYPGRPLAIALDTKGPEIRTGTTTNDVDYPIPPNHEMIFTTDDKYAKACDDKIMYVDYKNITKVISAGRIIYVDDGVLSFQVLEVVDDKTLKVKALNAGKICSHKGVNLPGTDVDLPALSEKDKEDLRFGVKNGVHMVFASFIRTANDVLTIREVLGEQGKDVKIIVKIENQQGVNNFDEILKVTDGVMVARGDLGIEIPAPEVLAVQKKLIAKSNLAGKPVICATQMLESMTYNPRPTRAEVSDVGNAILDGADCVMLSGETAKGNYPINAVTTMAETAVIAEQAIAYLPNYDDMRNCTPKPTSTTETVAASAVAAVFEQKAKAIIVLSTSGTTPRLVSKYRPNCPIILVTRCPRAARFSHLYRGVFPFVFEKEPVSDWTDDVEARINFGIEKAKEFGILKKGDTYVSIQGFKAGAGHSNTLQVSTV
# Molecular target: T1, HA-tagged Pyk1 (HA-Pyk1)
# Experiment: co-IP; HA-Pyk1 precipitated with anti-HA antibody beads from yeast whole cell extract (400 μg; IP buffer: 100 mM MES pH 7.0, 200 mM KCl, 15 mM MgCl2, 5% glycerol, 0.15% NP-40, 50 mM NEM; 4 °C, 3 h); immunoblot with anti-Tsa1, anti-Pyk1 and anti-Prx-SO2/SO3; cells from glucose (SDM) or ethanol (SEM -Trp) medium, exponential, diauxic shift or early stationary phase, with or without 1, 3 or 10 mM H2O2
# Conditions: partners not purified
Binder,fold decrease of Pyk1-bound Tsa1 against wild-type Tsa1 (ethanol medium) [fold],stoichiometry N
"Tsa1^C48T (enzyme, S. cerevisiae, UniProt P34760 1-196, looked up, Tsa1 of S. cerevisiae with the peroxidatic cysteine Cys48 mutated to Thr; source: S. cerevisiae pyk1∆ tsa1/2∆ cells carrying an expression vector (pRS315), in lysate) MVAQVQKQAPTFKKTAVVDGVFDEVSLDKYKGKYVVLAFIPLAFTFVTPTEIIAFSEAAKKFEEQGAQVLFASTDSEYSLLAWTNIPRKEGGLGPINIPLLADTNHSLSRDYGVLIEEEGVALRGLFIIDPKGVIRHITINDLPVGRNVDEALRLVEAFQWTDKNGTVLPCNWTPGAATIKPTVEDSKEYFEAANK",~3,
"Tsa1^C171T (enzyme, S. cerevisiae, UniProt P34760 1-196, looked up, Tsa1 of S. cerevisiae with the resolving cysteine Cys171 mutated to Thr; source: S. cerevisiae tsa1/2Δ cells carrying an expression vector (pRS315), in lysate) MVAQVQKQAPTFKKTAVVDGVFDEVSLDKYKGKYVVLAFIPLAFTFVCPTEIIAFSEAAKKFEEQGAQVLFASTDSEYSLLAWTNIPRKEGGLGPINIPLLADTNHSLSRDYGVLIEEEGVALRGLFIIDPKGVIRHITINDLPVGRNVDEALRLVEAFQWTDKNGTVLPTNWTPGAATIKPTVEDSKEYFEAANK",,8 molecules of Tsa1^C171T for each tetramer of Pyk1

# From paper PMC5025857, “Redox-dependent Regulation of Gluconeogenesis by a Novel Mechanism Mediated by a Peroxidatic Cysteine of Peroxiredoxin” (Scientific Reports, 2016)
